The target of this data set is β subunit of DNA polymerase III of Escherichia coli, P0A988.
Sequence of β subunit of DNA polymerase III of Escherichia coli, P0A988 (P0A988 whole entry): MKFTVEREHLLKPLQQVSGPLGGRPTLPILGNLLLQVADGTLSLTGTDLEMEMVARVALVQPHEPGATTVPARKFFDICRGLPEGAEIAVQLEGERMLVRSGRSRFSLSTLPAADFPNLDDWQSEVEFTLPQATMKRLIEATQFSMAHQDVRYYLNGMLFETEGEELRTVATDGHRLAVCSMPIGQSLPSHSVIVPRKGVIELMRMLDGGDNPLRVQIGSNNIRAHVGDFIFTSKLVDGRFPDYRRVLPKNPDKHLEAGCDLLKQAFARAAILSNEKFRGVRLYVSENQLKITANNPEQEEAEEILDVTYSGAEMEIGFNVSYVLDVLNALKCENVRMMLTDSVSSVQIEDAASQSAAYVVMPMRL

B1: Pol IV DNA polymerase of Escherichia coli (protein)
chain: MRKIIHVDMDCFFAAVEMRDNPALRDIPIAIGGSRERRGVISTANYPARKFGVRSAMPTGMALKLCPHLTLLPGRFDAYKEASNHIREIFSRYTSRIEPLSLDEAYLDVTDSVHCHGSATLIAQEIRQTIFNELQLTASAGVAPVKFLAKIASDMNKPNGQFVITPAEVPAFLQTLPLAKIPGVGKVSAAKLEAMGLRTCGDVQKCDLVMLLKRFGKFGRILWERSQGIDERDVNSERLRKSVGVERTMAEDIHHWSECEAIIERLYPELERRLAKVKPDLLIARQGVKLKFDDFQQTTQEHVWPRLNKADLIATARKTWDERRGGRGVRLVGLHVTLLDPQMERQLVLGL
For B1, the “growth rate (OD 600 nm) of E. coli on IPTG-induced expression” value is reported as “a clear growth inhibition was observed for the culture expressing the wild type Pol IV protein compared to the one expressing the mutant protein” and the “in vitro polymerase activity of Pol IV” value was “the in vitro activity of Pol IV is greatly enhanced by the presence of the β subunit loaded onto a primer/template DNA substrate”.

(Values after patent US20070275898.)
